Experimental data published in PMC4364671, “Identification and Characterization of Bifunctional Proline Racemase/Hydroxyproline Epimerase from Archaea: Discrimination of Substrates and Molecular Evolution” (PLoS ONE, 2015).

What was measured:
[1] = target: ProR-like protein from Ferroplasma acidiphilum (Ferroplasma acidiphilum DSM 12658); test: SEC; analytic gel filtration by HPLC on TSKgel G3000SWXL, 50 mM Tris-HCl pH 8.0, 1 ml/min, high molecular weight calibration kit; data not shown
[2] = target: ProR-like protein (OCC_00372) from Thermococcus litoralis, bifunctional proline racemase/hydroxyproline epimerase (Thermococcus litoralis DSM 5473); test: as above
[3] = target: Hydroxyproline 2-epimerase from Azospirillum brasilense (Azospirillum brasilense ATCC 29145); test: as above
[4] = target: ProR-like protein from Haloarcula japonica (Haloarcula japonica DSM 6131); test: as above
[5] = target: T1, HjProR (Haloarcula japonica, UniProt M0LMI3); test: chiral HPLC of NBD-F derivatives, racemase activity; format: biochemical
T1 construct: gene C444_02196; full length, N-terminal His6 tag kept (pETDuet-1), E. coli; dimer; possible partial proteolysis
T1 sequence (M0LMI3 entry or part of it): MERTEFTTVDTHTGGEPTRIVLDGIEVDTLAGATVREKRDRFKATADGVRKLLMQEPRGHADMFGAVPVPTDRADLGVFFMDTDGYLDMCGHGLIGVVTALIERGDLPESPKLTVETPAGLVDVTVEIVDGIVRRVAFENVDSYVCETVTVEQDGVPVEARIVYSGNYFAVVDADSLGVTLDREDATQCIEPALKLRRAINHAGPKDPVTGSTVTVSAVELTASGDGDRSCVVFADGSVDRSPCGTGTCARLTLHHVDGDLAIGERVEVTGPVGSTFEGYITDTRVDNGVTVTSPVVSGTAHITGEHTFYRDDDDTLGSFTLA

[6] = target: T2, TlProR (bifunctional proline racemase/hydroxyproline epimerase) (Thermococcus litoralis, UniProt H3ZMH5); test: HPLC racemase assay with L-proline, chiral separation; format: biochemical
T2 construct: gene OCC_00372
T2 sequence (H3ZMH5 1-331): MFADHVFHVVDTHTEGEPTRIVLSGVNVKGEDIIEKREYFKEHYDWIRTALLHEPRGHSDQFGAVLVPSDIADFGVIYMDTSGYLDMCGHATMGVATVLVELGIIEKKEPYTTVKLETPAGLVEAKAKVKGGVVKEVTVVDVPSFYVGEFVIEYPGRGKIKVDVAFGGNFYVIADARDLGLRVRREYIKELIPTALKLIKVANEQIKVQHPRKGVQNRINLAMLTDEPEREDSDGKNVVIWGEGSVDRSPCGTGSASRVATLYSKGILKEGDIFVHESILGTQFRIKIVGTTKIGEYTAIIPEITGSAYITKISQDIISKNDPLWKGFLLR

[7] = substrate: O=C(O)[C@H]1NCC[C@@H]1O; test: purified protein
[8] = substrate: O=C(O)[C@H]1C[C@@H](O)CN1; test: purified protein
[9] = substrate: O=C(O)[C@@H]1C[C@@H](O)CN1; test: purified protein
[10] = substrate: O=C(O)[C@@H]1CCCN1; test: purified protein
[11] = substrate: O=C(O)[C@H]1CCCN1; test: purified protein
[12] = target: the molecule itself; test: SEC; analytic gel filtration by HPLC on TSKgel G3000SWXL, 50 mM Tris-HCl pH 8.0, 1 ml/min, high molecular weight calibration kit; data not shown

## ProR-like protein from Ferroplasma acidiphilum (enzyme)
[1]
  stoichiometry N: 2

## ProR-like protein (OCC_00372) from Thermococcus litoralis, bifunctional proline racemase/hydroxyproline epimerase (enzyme)
[2]
  stoichiometry N: 2

## Hydroxyproline 2-epimerase from Azospirillum brasilense (enzyme)
[3]
  stoichiometry N: 2

## ProR-like protein from Haloarcula japonica (enzyme)
[4]
  stoichiometry N: 2

## O=C(O)c1ccc[nH]1 [pyrrole-2-carboxylate]
[5]
  IC50: 295 µM

## O=C(O)c1ccc[nH]1 [PYC, pyrrole-2-carboxylate]
[6]
  IC50: 217 µM

B1: TlProR (bifunctional proline racemase/hydroxyproline epimerase) (Thermococcus litoralis DSM 5473) (protein)
chain: T2 sequence (H3ZMH5 1-331)
[7]
  Km: 502 µM
  kcat: 3.6 s⁻¹
  kcat/Km: 7170 M⁻¹ s⁻¹
[8]
  Km: 6650 µM
  kcat: 3.83 s⁻¹
  kcat/Km: 580 M⁻¹ s⁻¹
[9]
  Km: 6080 µM
  kcat: 12.1 s⁻¹
  kcat/Km: 2030 M⁻¹ s⁻¹
[10]
  Km: 1210 µM
  kcat: 2.78 s⁻¹
  kcat/Km: 2300 M⁻¹ s⁻¹
[11]
  Km: 91.9 µM
  kcat: 2.22 s⁻¹
  kcat/Km: 26200 M⁻¹ s⁻¹

B2: Proline racemase from Clostridium difficile (enzyme, Clostridium difficile 630, UniProt Q17ZY4 1-335, looked up)
chain: MKFSRSIQAIDSHTAGEATRIVVGGIPNIKGNSMPEKKEYLEENLDYLRTAIMLEPRGHNDMFGSVMTQPCCPDADFGIIFMDGGGYLNMCGHGTIGAMTAAIETGVVPAVEPVTHVVMEAPAGIIRGDVTVVDGKAKEVSFLNVPAFLYKEGVEVDLPGVGTVKFDISFGGSFFAIIHASQLGLKIEPQNAGKLTELAMKLRDIINEKIEIQHPTLAHIKTVDLVEIYDEPTHPEATYKNVVIFGQGQVDRSPCGTGTSAKLATLHAKGELKVGEKFVYESILGTLFKGEIVEETKVADFNAVVPKITGSAYITGFNHFVIDEEDPLKHGFILK
notes: Proline racemase CdProR of Clostridium difficile 630, gene CD630_32370 amplified from genomic DNA into pETDuet-1; calculated mass with His6-tag 37.7 kDa; also called CdProR; source: E. coli BL21-CodonPlus(DE3)-RIL, purified (Ni-NTA); not shown: His6, N-terminal, kept
[12]
  stoichiometry N: 2
